Experimental findings from patent US20060234285A1 (Human Genome Sciences, published 2006) are described below.

Assay [1] concerns the target T1, Soluble human FLAG-FasL (synthesized at HGS) (human, UniProt P48023 130-281, limits assumed).
T1 sequence (looked up): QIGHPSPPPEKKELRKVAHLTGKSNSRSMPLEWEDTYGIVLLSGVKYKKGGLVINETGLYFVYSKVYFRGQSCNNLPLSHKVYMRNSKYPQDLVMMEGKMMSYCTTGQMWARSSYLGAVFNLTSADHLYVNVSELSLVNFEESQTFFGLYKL
Briefly: cell-based or functional assay.

The target in assay [2] is T2, Murine FasL on transfected murine L929 cells (murine, UniProt P41047 1-279).
T2 sequence (looked up): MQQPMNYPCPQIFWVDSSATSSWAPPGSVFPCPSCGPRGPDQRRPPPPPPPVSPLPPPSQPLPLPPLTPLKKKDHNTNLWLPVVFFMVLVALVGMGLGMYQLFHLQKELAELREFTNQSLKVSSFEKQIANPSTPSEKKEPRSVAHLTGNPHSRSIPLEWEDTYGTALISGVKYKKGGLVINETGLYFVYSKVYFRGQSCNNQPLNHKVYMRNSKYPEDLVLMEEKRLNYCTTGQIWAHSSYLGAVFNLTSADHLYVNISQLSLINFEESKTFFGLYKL
Briefly: cell-based or functional assay.

In assay [3] the target is T1, Soluble human FLAG-FasL (synthesized at …). Briefly: BIAcore, trimerized FLAG-FasL soluble.
Assay [4] has as its target T3, Human LIGHT, full length, on cells (stably transfected 293F cells; endogenous on activated human T cells) (human, UniProt O43557 1-240).
T3 construct: whole, on cells; also called LIGHT-transfectants; cell membrane LIGHT
Briefly: flow cytometry on 293 cells overexpressing LIGHT. The protocol: This was tested on 293 cells overexpressing LIGHT according to flow cytometry.
On the technique in general: A flow cytometer gives signals particle by particle.

The target in assay [5] is T4, TNF-gamma-beta, full length, on transfected cells (human, UniProt O95150 1-251).
T4 construct: whole, on cells; also called TL1β
T4 sequence (looked up): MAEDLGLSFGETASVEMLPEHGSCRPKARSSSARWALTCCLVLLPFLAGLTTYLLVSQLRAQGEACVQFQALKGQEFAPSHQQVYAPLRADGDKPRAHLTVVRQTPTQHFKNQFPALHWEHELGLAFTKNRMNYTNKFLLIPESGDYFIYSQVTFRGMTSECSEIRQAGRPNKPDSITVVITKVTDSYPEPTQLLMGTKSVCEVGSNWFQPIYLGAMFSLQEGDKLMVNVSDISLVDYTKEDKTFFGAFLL
The assay can be described thus: flow cytometry on HEK293F cells expressing full length TNF-gamma-beta. The protocol: One million cells, in 0.1 ml of FACS buffer (PBS, 0.1% BSA, 0.1% NaN₃), were incubated with 0.1-1 microgram of protein or antibody at RT for 15 min. The cells were washed with 3 ml of FACS buffer, reacted with biotinylated primary antibody, and stained with PE-conjugated secondary antibody at RT for 15 min. Cells were then washed again, resuspended in 0.5 microgram/ml of propidium iodide, and live cells were gated and analyzed on a FACScan using the CellQuest software (BD Biosciences).

The target in assay [6] is T5, FLAG-tagged soluble form of TNF-gamma-beta (aa 72-251) (human, UniProt O95150 72-251).
T5 construct: also called FLAG-TL1β; FLAG-TNF-gamma-beta
T5 sequence (looked up): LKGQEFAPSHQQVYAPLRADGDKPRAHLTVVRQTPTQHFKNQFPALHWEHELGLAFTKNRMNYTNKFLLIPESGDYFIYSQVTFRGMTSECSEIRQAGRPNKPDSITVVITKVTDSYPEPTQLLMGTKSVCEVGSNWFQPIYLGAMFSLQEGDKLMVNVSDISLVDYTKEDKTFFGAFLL
The assay can be described thus: coimmunoprecipitation with protein A-Sepharose, anti-Flag western blot. The source says: The beads were then precipitated and washed extensively with PBST buffer (PBS, 0.5% Triton X-100) before boiled in SDS-sample buffer. Proteins were resolved on 4-20% Tris-Glycine gels (NOVEX), transferred to nitrocellulose membranes, and blotted with anti-Flag M2 monoclonal antibody (1 microgram/ml, Sigma) and horseradish peroxidase (HRP)-conjugated goat anti-mouse IgG antibody (0.5 microgram/ml).
For orientation: In western blotting, separated proteins are transferred to a membrane and probed.

T3 sequence (O43557 whole entry): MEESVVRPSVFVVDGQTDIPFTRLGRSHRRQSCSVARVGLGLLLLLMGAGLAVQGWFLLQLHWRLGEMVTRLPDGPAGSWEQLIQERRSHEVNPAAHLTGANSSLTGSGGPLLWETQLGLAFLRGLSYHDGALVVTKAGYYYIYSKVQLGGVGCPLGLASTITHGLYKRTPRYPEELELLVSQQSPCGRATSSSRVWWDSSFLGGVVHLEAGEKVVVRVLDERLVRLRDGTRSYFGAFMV

B1: Human Fas(M1-G169)-Fc fusion protein (Fc fusion, UniProt P25445 26-169, looked up, not shown: a dimerising Fc or GST)
chain: QVTDINSKGLELRKTVTTVETQNLEGLHHDGQFCHKPCPPGERKARDCTVNGDEPDCVPCQEGKEYTDKAHFSSKCRRCRLCDEGHGLEVEINCTRTQNTKCRCKPNFFCNSTVCEHCDPCTKCEHGIIKECTLTSNTKCKEEG
notes: range 1-169; From CHO cells; a disulfide-linked dimer; also called Fas-Fc; FasFc
What is called Kd is the free concentration of one partner at which half of the binding sites on the other are occupied at equilibrium, for simple one-to-one binding. As to B1, the “cross-linked FLAG-FasL mediated HT-29 cell death; shift of the cytotoxicity curve” value in assay [1] is approximately 10 fold. Besides, the “IC50 of inhibition of killing of A20 target cells by murine FasL-transfected L929 cells” value in assay [2] is approximately 0.1 µg/mL. In addition, in assay [3], the affinity, expressed as Kd, was 7.4 nM. The binding result in assay [4], in assay [5] and in assay [6] was “no binding” each time.
